Laboratory results published in article PMC5148137 (Biochemical and biophysical research communications, 2012).

Biological target: Cul3(1–383)-(His)6 (co-expressed) (human, UniProt Q13618 1-383)
Assay: AUC

Chain of Cul3(1–383)-(His)6 (co-expressed) (Q13618 1-383): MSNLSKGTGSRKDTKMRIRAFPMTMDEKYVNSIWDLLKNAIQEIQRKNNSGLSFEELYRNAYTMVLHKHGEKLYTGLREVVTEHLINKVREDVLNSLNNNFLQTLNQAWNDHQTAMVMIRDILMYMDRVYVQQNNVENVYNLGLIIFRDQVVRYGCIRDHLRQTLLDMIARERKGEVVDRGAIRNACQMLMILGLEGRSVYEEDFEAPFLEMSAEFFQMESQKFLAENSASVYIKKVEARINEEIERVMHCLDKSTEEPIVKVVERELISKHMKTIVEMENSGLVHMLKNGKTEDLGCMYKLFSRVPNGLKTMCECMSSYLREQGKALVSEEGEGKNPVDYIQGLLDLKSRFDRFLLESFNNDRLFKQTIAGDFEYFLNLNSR

stoichiometry N: 1
B1: MBP-KBTBD13(6–132) (domain or fragment, human, UniProt C9JR72 6-132, looked up)
chain: QTLVQVWVGGQLFQADRALLVEHCGFFRGLFRSGMRETRAAEVRLGVLSAGGFRATLQVLRGDRPALAAEDELLQAVECAAFLQAPALARFLEHNLTSDNCALLCDAAAAFGLRDVFHSAALFICDG
